# Experimental data taken from IntAct's records for PubMed 31515488.
# B1: Germ cell-less protein-like 1 (Homo sapiens), Q96IK5 (parent)
# chain: MGSLSSRVLRQPRPALAQQAQGARAGGSARRPDTGDDAAGHGFCYCAGSHKRKRSSGSFCYCHPDSETDEDEEEGDEQQRLLNTPRRKKLKSTSKYIYQTLFLNGENSDIKICALGEEWSLHKIYLCQSGYFSSMFSGSWKESSMNIIELEIPDQNIDVEALQVAFGSLYRDDVLIKPSRVVAILAAACLLQLDGLIQQCGETMKETVNVKTVCGYYTSAGTYGLDSVKKKCLEWLLNNLMTHQNVELFKELSINVMKQLIGSSNLFVMQVEMDIYTALKKWMFLQLVPSWNGSLKQLLTETDVWFSKQRKDFEGMAFLETEQGKPFVSVFRHLRLQYIISDLASARIIEQDAVVPSEWLSSVYKQQWFAMLRAEQDSEVGPQEINKEELEGNSMRCGRKLAKDGEYCWRWTGFNFGFDLLVTYTNRYIIFKRNTLNQPCSGSVSLQPRRSIAFRLRLASFDSSGKLICSRTTGYQILTLEKDQEQVVMNLDSRLLIFPLYICCNFLYISPEKKN
# partner: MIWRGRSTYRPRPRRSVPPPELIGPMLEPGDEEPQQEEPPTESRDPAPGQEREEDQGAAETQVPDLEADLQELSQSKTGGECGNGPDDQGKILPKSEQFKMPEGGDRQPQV
# B2: Coiled-coil domain-containing protein 33 (Homo sapiens), Q8N5R6-5 (parent)
# chain: MGEPGPPSPPAPKAAPGLIDSFSEMNNYRRAMQKMAEDILSLRRQASILEGENRILRSRLAQQEEEEGQGKASEAQNTVSMKQKLLLSELDMKKLRDRVQHLQNELIRKNDREKELLLLYQAQQPQAALLKQYQGKLQKMKALEETVRHQEKVIEKMERVLEDRLQDRSKPPPLNRQQGKPYTGFPMLSASGLPLGSMGENLPVELYSVLLAENAKLRTELDKNRHQQAPIILQQQALPVDPGELGAGGDLTERLQETHGPGHSECTETLPAQDLLSGTSDKFNLLAKLEHAQSRILSLESQLEDSARRWGREKQDLATRLQEQEKGFRHPSNSIIIEQPVSDPPGVAPRGSGGGAGSHRTPKVTGP
# partner: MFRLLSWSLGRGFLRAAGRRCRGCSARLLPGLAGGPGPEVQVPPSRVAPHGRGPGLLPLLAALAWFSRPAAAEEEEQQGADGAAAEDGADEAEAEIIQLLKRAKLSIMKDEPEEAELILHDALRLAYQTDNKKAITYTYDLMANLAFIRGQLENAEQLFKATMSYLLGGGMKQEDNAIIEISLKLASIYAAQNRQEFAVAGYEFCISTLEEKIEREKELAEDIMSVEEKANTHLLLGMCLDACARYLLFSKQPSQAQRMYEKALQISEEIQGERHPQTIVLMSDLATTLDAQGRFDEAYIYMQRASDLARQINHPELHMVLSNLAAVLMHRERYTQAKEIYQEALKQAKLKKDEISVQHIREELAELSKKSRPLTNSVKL
# B3: Vacuolar-sorting protein SNF8 (Homo sapiens), Q96H20 (parent)
# chain: MHRRGVGAGAIAKKKLAEAKYKERGTVLAEDQLAQMSKQLDMFKTNLEEFASKHKQEIRKNPEFRVQFQDMCATIGVDPLASGKGFWSEMLGVGDFYYELGVQIIEVCLALKHRNGGLITLEELHQQVLKGRGKFAQDVSQDDLIRAIKKLKALGTGFGIIPVGGTYLIQSVPAELNMDHTVVLQLAEKNGYVTVSEIKASLKWETERARQVLEHLLKEGLAWLDLQAPGEAHYWLPALFTDLYSQEITAEEAREALP
# partner: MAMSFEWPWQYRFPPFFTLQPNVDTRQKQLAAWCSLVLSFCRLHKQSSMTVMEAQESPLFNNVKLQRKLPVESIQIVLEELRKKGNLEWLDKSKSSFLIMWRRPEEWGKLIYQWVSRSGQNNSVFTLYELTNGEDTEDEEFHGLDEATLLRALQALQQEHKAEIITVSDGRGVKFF
# B4: Zinc finger protein Aiolos (Homo sapiens), Q9UKT9 (parent)
# chain: MEDIQTNAELKSTQEQSVPAESAAVLNDYSLTKSHEMENVDSGEGPANEDEDIGDDSMKVKDEYSERDENVLKSEPMGNAEEPEIPYSYSREYNEYENIKLERHVVSFDSSRPTSGKMNCDVCGLSCISFNVLMVHKRSHTGERPFQCNQCGASFTQKGNLLRHIKLHTGEKPFKCHLCNYACQRRDALTGHLRTHSVEKPYKCEFCGRSYKQRSSLEEHKERCRTFLQSTDPGDTASAEARHIKAEMGSERALVLDRLASNVAKRKSSMPQKFIGEKRHCFDVNYNSSYMYEKESELIQTRMMDQAINNAISYLGAEALRPLVQTPPAPTSEMVPVISSMYPIALTRAEMSNGAPQELEKKSIHLPEKSVPSERGLSPNNSGHDSTDTDSNHEERQNHIYQQNHMVLSRARNGMPLLKEVPRSYELLKPPPICPRDSVKVINKEGEVMDVYRCDHCRVLFLDYVMFTIHMGCHGFRDPFECNMCGYRSHDRYEFSSHIARGEHRALLK
# partner: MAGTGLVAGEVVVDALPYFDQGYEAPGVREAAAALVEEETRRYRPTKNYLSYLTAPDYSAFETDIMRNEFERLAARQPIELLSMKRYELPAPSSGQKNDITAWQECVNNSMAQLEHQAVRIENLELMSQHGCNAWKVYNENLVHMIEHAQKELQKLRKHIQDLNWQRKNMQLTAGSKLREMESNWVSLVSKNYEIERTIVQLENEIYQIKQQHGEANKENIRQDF
# B5: Phosphatidylinositol-3-phosphate phosphatase MTMR7 (Homo sapiens), Q9Y216 (parent)
# chain: MEHIRTPKVENVRLVDRVSPKKAALGTLYLTATHVIFVENSPDPRKETWILHSQISTIEKQATTATGCPLLIRCKNFQIIQLIIPQERDCHDVYISLIRLARPVKYEELYCFSFNPMLDKEEREQGWVLIDLSEEYTRMGLPNHYWQLSDVNRDYRVCDSYPTELYVPKSATAHIIVGSSKFRSRRRFPVLSYYYKDNHASICRSSQPLSGFSARCLEDEQMLQAIRKANPGSDFVYVVDTRPKLNAMANRAAGKGYENEDNYSNIKFQFIGIENIHVMRNSLQKMLEVCELKSPSMSDFLWGLENSGWLRHIKAIMDAGIFIAKAVSEEGASVLVHCSDGWDRTAQVCSVASLLLDPHYRTLKGFMVLIEKDWISFGHKFNHRYGNLDGDPKEISPVIDQFIECVWQLMEQFPCAFEFNERFLIHIQHHIYSCQFGNFLCNSQKERRELKIQERTYSLWAHLWKNRADYLNPLFRADHSQTQGTLHLPTTPCNFMYKFWSGMYNRFEKGMQPRQSVTDYLMAVKEETQQLEEELEALEERLEKIQKVQLNCTKVKSKQSEPSKHSGFSTSDNSIANTPQDYSGNMKSFPSRSPSQGDEDSALILTQDNLKSSDPDLSANSDQESGVEDLSCRSPSGGEHAPSEDSGKDRDSDEAVFLTA
# partner: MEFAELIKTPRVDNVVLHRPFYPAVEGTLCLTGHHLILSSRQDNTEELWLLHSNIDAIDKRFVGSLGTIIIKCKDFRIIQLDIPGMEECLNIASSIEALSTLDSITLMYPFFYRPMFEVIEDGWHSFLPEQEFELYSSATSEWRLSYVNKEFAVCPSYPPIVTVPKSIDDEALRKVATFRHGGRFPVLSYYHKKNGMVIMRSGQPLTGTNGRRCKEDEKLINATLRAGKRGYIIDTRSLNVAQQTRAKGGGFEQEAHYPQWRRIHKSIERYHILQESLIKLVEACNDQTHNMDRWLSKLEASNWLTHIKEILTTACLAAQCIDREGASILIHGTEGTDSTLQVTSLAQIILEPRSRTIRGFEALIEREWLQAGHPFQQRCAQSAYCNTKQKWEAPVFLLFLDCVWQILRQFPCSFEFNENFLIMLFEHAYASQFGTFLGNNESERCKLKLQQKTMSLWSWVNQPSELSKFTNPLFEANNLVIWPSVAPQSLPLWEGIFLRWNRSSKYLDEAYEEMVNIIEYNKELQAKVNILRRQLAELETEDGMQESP
# B6: WASH complex subunit 3 (Homo sapiens), Q9Y3C0 (parent)
# chain: MDEDGLPLMGSGIDLTKVPAIQQKRTVAFLNQFVVHTVQFLNRFSTVCEEKLADLSLRIQQIETTLNILDAKLSSIPGLDDVTVEVSPLNVTSVTNGAHPEATSEQPQQNSTQDSGLQESEVSAENILTVAKDPRYARYLKMVQVGVPVMAIRNKMISEGLDPDLLERPDAPVPDGESEKTVEESSDSESSFSD
# partner: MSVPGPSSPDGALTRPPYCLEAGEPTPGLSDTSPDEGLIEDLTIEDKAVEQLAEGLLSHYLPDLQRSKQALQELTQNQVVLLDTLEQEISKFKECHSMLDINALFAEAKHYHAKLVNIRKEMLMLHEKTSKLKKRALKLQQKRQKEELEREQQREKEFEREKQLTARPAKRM
# Variants of: B1
# Details: with xage3_human XAGE3, Q8WTP9
row,Variant,effect of a mutation on the interaction
1,I340V,with no effect

# Variants of: B2
# Details: with ttc19_human TTC19, Q6DKK2
row,Variant,effect of a mutation on the interaction
1,P203L,with no effect
2,R30L,with no effect
3,M25V,with no effect
4,G196R,with no effect

# Variants of: B3
# Details: with vps25_human VPS25, Q9BRG1
row,Variant,effect of a mutation on the interaction
1,A17T,with no effect
2,Q185R,with no effect

# Variants of: B4
# Details: with spf27_human BCAS2, O75934
row,Variant,effect of a mutation on the interaction
1,N119D,with no effect
2,A24V,with no effect

# Variants of: B5
# Details: with mtmr9_human MTMR9, Q96QG7
row,Variant,effect of a mutation on the interaction
1,M522T,with no effect

# Variants of: B6
# Details: with bl1s6_human BLOC1S6, Q9UL45
row,Variant,effect of a mutation on the interaction
1,F44L,with no effect
